According to the supplement of paper PMC10126150:
± gives the standard deviation of the averaged measurements.

System: ATP
Assay: switch fluorescence ratio, 500 uM ATP over buffer (Cy3 cluster intensity, sum of 5 cycles each) (fold (ratio)); higher = stronger signal-on switching upon ATP binding; sequences stand for … in TCGTCGGCAGCGTCAGATGTGTATAAGAGACAGTTTTTTTTTTTTTTTTTTTTTTTTT…TC
Details: aptamer strand: ATP DNA aptamer (quencher-CACCTGGGGGAGTATTGCGGAGGAAGG + anchor), 100 nM annealed; ATP concentration: 500 uM
Summary of the method: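 Exposure to 500 uM ATP lasted 15 min at 22 °C before imaging, and a selection-buffer image was taken beforehand, for Cy3-labelled switching-strand clusters on a modified Illumina MiSeq flow-cell annealed to 100 nM quencher-labelled ATP aptamer. Five buffer/ATP cycles were run with NaOH stripping and re-annealing between them. The fluorescence ratio per cluster is summed target-cycle over summed buffer-cycle Cy3 intensity, averaged per switch-domain sequence. Clusters outside 100-1000 RFU were excluded.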

| Sequence | switch fluorescence ratio |
| --- | --- |
| GGAGAACTTA | 1.04 ± 0.051 |
| AAAATTATTT | 1.01 ± 0.021 |
| GCGAGAGCTG | 0.992 ± 0.017 |
| CGTGCAGGGT | 1.03 ± 0.052 |
| TCGAAAAGGA | 1.02 ± 0.026 |
| TGGAGAGGTG | 1.02 ± 0.083 |
| CACTGCGTCT | 1.07 ± 0.11 |
| TTTAAAATGT | 1.12 ± 0.25 |
| GAAGGTGCGA | 1.15 ± 0.052 |
| TTCATTGTTT | 1.01 ± 0.02 |
| TGGGGGCCGA | 1.049 ± 0.0034 |
| CCGGTAAGTC | 1.27 ± 0.026 |
| TATGTATCGC | 1.13 ± 0.15 |
| GGGGTGGAGT | 0.971 ± 0.019 |
| CCTCAGGGGC | 2.39 ± 0.57 |
| ACAAGTAAGC | 1.048 ± 0.0067 |
| CAGAAGGGCC | 0.997 ± 0.089 |
| TGCCACTCTG | 1.025 ± 0.008 |
| TGTGTTTATT | 1.051 ± 0.008 |
| TCGTGGGACT | 1.07 ± 0.12 |
| AATGGAGATT | 0.985 ± 0.031 |
| ATTGAGTTAG | 0.99 ± 0.011 |
| TGTGGTTCGA | 0.972 ± 0.011 |

| Sequence | switch fluorescence ratio |
| --- | --- |
| CGGGTAAGTA | 1.03 ± 0.097 |
| CCGTTCTCGC | 1.31 ± 0.048 |
| AGTATGGGTA | 1 ± 0.018 |
| GTGGGGGACA | 0.993 ± 0.04 |
| CGTTGAATAT | 1.01 ± 0.016 |
| GGGTGAGTTT | 1.038 ± 0.0051 |
| GGAATAAAGT | 0.996 ± 0.021 |
| GGTGCATGGT | 1.05 ± 0.011 |
| ACTCTTATCA | 1.01 ± 0.023 |
| CCATTGTCCC | 1.05 ± 0.029 |
| AATGTATTTT | 1.01 ± 0.029 |
| ATGAAAGTGC | 1.02 ± 0.017 |
| TTGGGATTAA | 1.05 ± 0.053 |
| ACTTATTGGG | 1.03 ± 0.011 |
| ACTCAGTTGT | 1.06 ± 0.059 |
| GGGGGGTCCC | 0.9957 ± 0.0037 |
| TACTTTAATT | 1.04 ± 0.014 |
| TTTTTGATGT | 0.994 ± 0.022 |
| TTAAGTACG | 1.22 ± 0.09 |
| AGTGAGATGA | 1 ± 0.04 |
| GGGAGGGGCA | 0.971 ± 0.012 |
| AGAAAGCGTT | 1.02 ± 0.022 |
| ATGCTGAGGA | 0.977 ± 0.042 |

| Sequence | switch fluorescence ratio |
| --- | --- |
| TCTCGCCGGG | 1.02 ± 0.031 |
| TAGGGACTCT | 0.995 ± 0.014 |
| AAGGTCATTT | 1 ± 0.034 |
| CTATGTTCGC | 0.954 ± 0.023 |
| GACGGATTTA | 0.988 ± 0.035 |
| ATTTGGAATT | 1 ± 0.027 |
| ATTGTGCTTT | 1.04 ± 0.024 |
| AGTACCGTTT | 0.968 ± 0.027 |
| TAGGGTATGG | 0.9792 ± 0.0083 |
| TAAGAGTACT | 1.008 ± 0.0019 |
| AGGTTGTGTG | 0.959 ± 0.044 |
| GATGGGAGTG | 1 ± 0.029 |
| CTTAGGATAG | 0.996 ± 0.0029 |
| TGGTAGGGAA | 0.982 ± 0.014 |
| ATGGGCTCCG | 0.974 ± 0.015 |
| AGGGCGCGTT | 0.9645 ± 0.0028 |
| GATTATAGTA | 0.952 ± 0.027 |
| TTCTTGGGAT | 1 ± 0.019 |
| TAAAGGATG | 0.968 ± 0.019 |
| AGATGGTTTC | 0.993 ± 0.042 |
| ATCATTGAA | 0.9864 ± 0.0087 |
| CTGGGAGTGT | 0.9946 ± 0.0092 |
| TCGGAAGGGG | 1.17 ± 0.3 |

| Sequence | switch fluorescence ratio |
| --- | --- |
| TATCCACCGT | 1.077 ± 0.0031 |
| TGTGGGATAT | 1.05 ± 0.068 |
| TCGGTGACAG | 1.01 ± 0.018 |
| ACCCTAGACG | 1.03 ± 0.045 |
| ATTTGAGTTT | 1.01 ± 0.038 |
| TTGTTATGCG | 0.995 ± 0.012 |
| TGGGAGTACT | 1.0104 ± 0.00041 |
| ACTTTCCACA | 1.17 ± 0.027 |
| TATACGGGGC | 1.01 ± 0.027 |
| AAGGAGTATT | 1.01 ± 0.026 |
| TCCAAGGGCA | 1.01 ± 0.015 |
| GAATGTCCGT | 0.992 ± 0.015 |
| GCCCGGGCAT | 0.986 ± 0.013 |
| TTGGGTGAGT | 1.01 ± 0.014 |
| TCGGCGTGGG | 1.01 ± 0.025 |
| ATATTAATTT | 0.989 ± 0.023 |
| GTTTAAAGTG | 1 ± 0.026 |
| GGTTGAAGAG | 0.955 ± 0.011 |
| TGGTAAAGTG | 1.08 ± 0.1 |
| CCAGCACTTT | 1.008 ± 0.002 |
| TTTCTCTGAT | 0.9813 ± 0.0042 |
| GTGGAGGGTA | 1.01 ± 0.029 |
| CGAATTAAAC | 0.99 ± 0.029 |

| Sequence | switch fluorescence ratio |
| --- | --- |
| GGGCAAGAGC | 1.04 ± 0.063 |
| TGGTACGTAG | 1.03 ± 0.034 |
| TCGAGGGGGG | 1.05 ± 0.096 |
| ACAGGAAACG | 1.042 ± 0.0014 |
| AGTTTTTTTG | 0.99 ± 0.017 |
| TGTGGGAAGG | 1.05 ± 0.074 |
| TCACTGTTTC | 1.011 ± 0.0076 |
| GTACTTCATA | 1.03 ± 0.013 |
| GTTGGCGTTT | 1.02 ± 0.08 |
| CTATGGGGTG | 1.04 ± 0.04 |
| TGAAGGGCGT | 0.9927 ± 0.0081 |
| CCTTACGGCA | 1.53 ± 0.068 |
| CGTGAAGGGA | 1.01 ± 0.026 |
| GTTTATGAGC | 1 ± 0.022 |
| CCTGTTTCTA | 1.17 ± 0.23 |
| GGGCCGGGAG | 0.984 ± 0.02 |
| CGGGGGGACG | 1.01 ± 0.084 |
| TAAAGATGG | 0.995 ± 0.027 |
| GGTCAGGGTA | 1.01 ± 0.04 |
| AAATATATTC | 1.02 ± 0.012 |
| GGTGGAATGT | 0.983 ± 0.049 |
| AAATCCCGCT | 1.0834 ± 0.00016 |
| GAAGTTAGGG | 0.981 ± 0.032 |

| Sequence | switch fluorescence ratio |
| --- | --- |
| GGGCTGAGGA | 1 ± 0.036 |
| TGGGAGAGGG | 1.01 ± 0.02 |
| ATGGCTGTGG | 0.9852 ± 0.0085 |
| AGCTTATCTA | 1 ± 0.011 |
| TGGAAATTGG | 1.01 ± 0.02 |
| TGATATTGGT | 1.01 ± 0.021 |
| AATGTGGGTA | 0.982 ± 0.015 |
| GCCGGCTGTG | 0.9902 ± 0.0018 |
| GAGGGGGTGG | 1 ± 0.064 |
| GGGAAAAATC | 2.06 ± 1.5 |
| GCTTTTTGGG | 0.963 ± 0.039 |
| GCAGGCGGGG | 1.02 ± 0.034 |
| CAGCTGTGGT | 0.985 ± 0.036 |
| GTTGGCACGA | 1.04 ± 0.018 |
| GGTCTTGGGC | 1.02 ± 0.026 |
| TCTGATTATA | 0.987 ± 0.024 |
| ATTCGCCACT | 1.011 ± 0.0012 |
| GTAGGGAAAG | 1.009 ± 0.0087 |
| CATTTTCTAA | 1.04 ± 0.047 |
| GTTACTTGGT | 1.01 ± 0.034 |
| TTAATAGTTT | 0.988 ± 0.04 |
| GAGGAAAAAT | 1.062 ± 0.0021 |
| CTATACGGTA | 1.128 ± 0.0097 |

| Sequence | switch fluorescence ratio |
| --- | --- |
| CGGGGGTACA | 1.02 ± 0.019 |
| TTGTTCTTTT | 1.07 ± 0.077 |
| TATATTTTAG | 1.03 ± 0.021 |
| CACGGGGGGA | 0.99 ± 0.033 |
| GGAGTATTTT | 1.12 ± 0.29 |
| TTTTCGAGCT | 1.006 ± 0.0095 |
| AGAGGGTGCG | 0.934 ± 0.041 |
| GATGGGTTGA | 1.06 ± 0.03 |
| AGATTAAAGA | 1.006 ± 0.009 |
| ATATGGATGA | 0.96 ± 0.03 |
| AAAGGGGTAA | 0.982 ± 0.02 |
| ACTTGGGGTA | 0.992 ± 0.04 |
| TTCAGTTGGT | 0.987 ± 0.017 |
| AAAAGTGTTA | 0.977 ± 0.027 |
| GCTACTTTGG | 1.06 ± 0.048 |
| AGGTGTTGGT | 1.03 ± 0.025 |
| ATACTTGAAC | 1.034 ± 0.0012 |
| ATAGGATTGC | 0.982 ± 0.011 |
| GAGCTACTGA | 1.011 ± 0.0085 |
